Results on 1 molecule are retold here after PMC8034659.

What all share (assay): SPR
For one data set, the target named is T1, TrfA P151S/E361K (plasmid RK2, UniProt P07676 98-382, P151S;G254D;S267L;E361K).
T1 sequence: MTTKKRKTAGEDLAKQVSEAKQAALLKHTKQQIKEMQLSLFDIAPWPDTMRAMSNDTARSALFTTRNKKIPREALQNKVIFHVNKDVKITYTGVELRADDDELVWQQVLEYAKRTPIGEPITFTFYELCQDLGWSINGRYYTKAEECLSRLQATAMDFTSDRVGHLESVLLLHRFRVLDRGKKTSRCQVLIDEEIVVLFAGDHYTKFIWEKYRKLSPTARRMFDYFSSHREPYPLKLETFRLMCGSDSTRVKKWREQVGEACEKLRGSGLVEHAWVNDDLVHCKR

A further data set concerns the target T2, TrfA K165E (plasmid RK2, UniProt P07676 98-382, K165E;G254D;S267L).
T2 sequence: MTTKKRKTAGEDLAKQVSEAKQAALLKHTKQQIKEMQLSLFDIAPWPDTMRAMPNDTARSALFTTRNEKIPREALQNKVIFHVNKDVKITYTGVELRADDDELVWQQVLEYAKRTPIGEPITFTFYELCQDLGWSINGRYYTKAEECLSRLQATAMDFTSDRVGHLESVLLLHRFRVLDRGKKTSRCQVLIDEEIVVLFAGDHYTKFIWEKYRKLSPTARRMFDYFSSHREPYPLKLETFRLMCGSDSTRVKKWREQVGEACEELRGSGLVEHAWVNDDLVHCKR

A further data set concerns the target T3, TrfA R347E (plasmid RK2, UniProt P07676 98-382, G254D;S267L;R347E).
T3 sequence: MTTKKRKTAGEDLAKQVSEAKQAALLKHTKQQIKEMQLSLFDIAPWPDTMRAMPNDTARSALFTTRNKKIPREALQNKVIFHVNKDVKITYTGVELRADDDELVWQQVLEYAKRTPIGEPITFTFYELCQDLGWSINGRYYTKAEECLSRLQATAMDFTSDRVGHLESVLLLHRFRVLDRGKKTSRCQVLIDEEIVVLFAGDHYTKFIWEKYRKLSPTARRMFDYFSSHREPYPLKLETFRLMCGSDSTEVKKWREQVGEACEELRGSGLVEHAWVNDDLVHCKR

Data set [1] concerns the target T4, TrfA wt (G254D/S267L, 33 kDa) (plasmid RK2, UniProt P07676 98-382, G254D;S267L).
T4 sequence: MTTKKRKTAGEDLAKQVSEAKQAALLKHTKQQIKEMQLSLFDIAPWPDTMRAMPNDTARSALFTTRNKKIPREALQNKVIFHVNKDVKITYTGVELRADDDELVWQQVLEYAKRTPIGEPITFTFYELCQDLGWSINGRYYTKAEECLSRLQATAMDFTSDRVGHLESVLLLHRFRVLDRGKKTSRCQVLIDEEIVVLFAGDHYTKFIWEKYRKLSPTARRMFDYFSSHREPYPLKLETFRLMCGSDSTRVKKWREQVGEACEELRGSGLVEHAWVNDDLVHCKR

B1: five RK2 iterons (ItT/ItB) (dsDNA)
DNA 1: CCTGCGGTATTGACACTTGAGGGGCGCGACTACTGACAGATGAGGGGCGCGATCCTTGACACTTGAGGGGCAGAGTGATGACAGATGAGGGGCGCACCTATTGACATTTGAGGGGCTGTCCACAGGCAG
DNA 2: CTGCCTGTGGACAGCCCCTCAAATGTCAATAGGTGCGCCCCTCATCTGTCATCACTCTGCCCCTCAAGTGTCAAGGATCGCGCCCCTCATCTGTCAGTAGTCGCGCCCCTCAAGTGTCAATACCGCAGG
B1: the binding result with TrfA P151S/E361K is listed as “binds”; with TrfA K165E, “no binding”; with TrfA R347E, “no binding”; in data set [1], “binds”.
